Experimental data published in patent US20260167699A1 (Chugai, published 2026).
Where a chain is given by its changes, count along the chain named.

T1: FcγRIIa(R) extracellular domain, His-tagged (human, UniProt P12318 34-217)
T1 construct: extracellular domain; also called 2aR
T1 sequence: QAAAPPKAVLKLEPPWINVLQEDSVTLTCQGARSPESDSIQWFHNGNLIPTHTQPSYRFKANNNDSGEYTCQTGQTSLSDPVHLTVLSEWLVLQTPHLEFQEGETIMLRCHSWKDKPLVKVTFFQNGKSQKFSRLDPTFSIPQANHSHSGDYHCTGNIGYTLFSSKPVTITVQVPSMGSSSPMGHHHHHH

T2: FcγRIIa(H) extracellular domain, His-tagged (human, UniProt P12318 34-217)
T2 construct: extracellular domain; also called 2aH
T2 sequence: T1 sequence with R134H

T3: FcγRIIb extracellular domain, His-tagged (human, UniProt P31994 43-217)
T3 construct: extracellular domain; also called 2b
T3 sequence: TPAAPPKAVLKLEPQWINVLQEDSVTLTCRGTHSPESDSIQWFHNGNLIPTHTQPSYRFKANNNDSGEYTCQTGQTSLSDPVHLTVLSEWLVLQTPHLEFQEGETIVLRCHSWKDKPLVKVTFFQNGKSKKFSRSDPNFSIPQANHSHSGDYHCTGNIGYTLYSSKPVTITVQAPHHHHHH

B1: GpH7-A5/GpH7-B3 variant P238_15Y/GpL16-k0 (antibody, human IgG1, kappa)
heavy 1: not shown
heavy 2: not shown
light: DIVMTQSPLSLPVTPGEPASISCQASESLVHSNRNTYLHWYLQKPGQSPQLLIYKVSNRFSGVPDRFSGSGSGTDFTLKISRVEAEDVGVYYCSQNTHVPPTFGQGTKVEIERTVAAPSVFIFPPSDEQLKSGTASVVCLLNNFYPREAKVQWKVDNALQSGNSQESVTEQDSKDSTYSLSSTLTLSKADYEKHKVYACEVTHQGLSSPVTKSFNRGEC
B2: GpH7-A5/GpH7-B3 variant P271_06M/GpL16-k0 (antibody, human IgG1, kappa)
heavy 1: not shown
heavy 2: not shown
light: B1 light
B3: GpH7-A5/GpH7-B3 variant P271_09D/GpL16-k0 (antibody, human IgG1, kappa)
heavy 1: not shown
heavy 2: not shown
light: B1 light
B4: GpH7-A5/GpH7-B3 variant P271_04F/GpL16-k0 (antibody, human IgG1, kappa)
heavy 1: not shown
heavy 2: not shown
light: B1 light
B5: GpH7-A5/GpH7-B3 variant P271_11K/GpL16-k0 (antibody, human IgG1, kappa)
heavy 1: not shown
heavy 2: not shown
light: B1 light
B6: GpH7-A5/GpH7-B3 variant P271_10E/GpL16-k0 (antibody, human IgG1, kappa)
heavy 1: not shown
heavy 2: not shown
light: B1 light
B7: GpH7-A5/GpH7-B3 variant P271_08L/GpL16-k0 (antibody, human IgG1, kappa)
heavy 1: not shown
heavy 2: not shown
light: B1 light
B8: GpH7-A5/GpH7-B3 variant P238_19Q/GpL16-k0 (antibody, human IgG1, kappa)
heavy 1: not shown
heavy 2: not shown
light: B1 light
B9: GpH7-A5/GpH7-B3 variant P271_03V/GpL16-k0 (antibody, human IgG1, kappa)
heavy 1: not shown
heavy 2: not shown
light: B1 light
B10: GpH7-A5/GpH7-B3 variant P271_01G/GpL16-k0 (antibody, human IgG1, kappa)
heavy 1: not shown
heavy 2: not shown
light: B1 light
B11: GpH7-A5/GpH7-B3 variant P271_07I/GpL16-k0 (antibody, human IgG1, kappa)
heavy 1: not shown
heavy 2: not shown
light: B1 light
B12: GpH7-A5/GpH7-B3 variant P271_02A/GpL16-k0 (antibody, human IgG1, kappa)
heavy 1: not shown
heavy 2: not shown
light: B1 light
B13: GpH7-A5/GpH7-B3 variant P271_12R/GpL16-k0 (antibody, human IgG1, kappa)
heavy 1: not shown
heavy 2: not shown
light: B1 light
B14: GpH7-A5/GpH7-B3 variant P271_13S/GpL16-k0 (antibody, human IgG1, kappa)
heavy 1: not shown
heavy 2: not shown
light: B1 light

Molecular target: T4, FcγRIa extracellular domain, His-tagged (human, UniProt P12314 16-292)
T4 construct: extracellular domain; also called 1a
T4 sequence (P12314 other isoform, or with tags, fused parts or gaps): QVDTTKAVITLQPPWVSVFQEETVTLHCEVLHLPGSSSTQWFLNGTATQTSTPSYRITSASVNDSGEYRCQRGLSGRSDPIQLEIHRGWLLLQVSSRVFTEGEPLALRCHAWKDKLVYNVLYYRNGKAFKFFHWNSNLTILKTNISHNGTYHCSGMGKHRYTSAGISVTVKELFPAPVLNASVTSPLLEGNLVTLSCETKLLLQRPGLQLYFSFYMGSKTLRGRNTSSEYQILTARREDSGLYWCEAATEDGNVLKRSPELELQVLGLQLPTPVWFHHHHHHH
Assay: SPR, vs GpH7-A5/GpH7-B3/GpL16-k0 =100

Binder | He/Con 1a
B1 | 104 % of control
B2 | 101 % of control
B3 | 100 % of control
B4 | 100 % of control
B5 | 101 % of control
B6 | 101 % of control
B7 | 101 % of control
B8 | 101 % of control
B9 | 101 % of control
B10 | 103 % of control
B11 | 101 % of control
B12 | 102 % of control
B13 | 101 % of control
B14 | 101 % of control

Molecular target: T1, FcγRIIa(R) extracellular domain, …
Assay: SPR, vs GpH7-A5/GpH7-B3/GpL16-k0 =100

Binder | He/Con 2aR
B1 | 147 % of control
B2 | 87.3 % of control
B3 | 109 % of control
B4 | 75.2 % of control
B5 | 97.3 % of control
B6 | 102 % of control
B7 | 103 % of control
B8 | 97.8 % of control
B9 | 85.8 % of control
B10 | 143 % of control
B11 | 88 % of control
B12 | 93.9 % of control
B13 | 95.8 % of control
B14 | 93.5 % of control

Molecular target: T2, FcγRIIa(H) extracellular domain, …
Assay: SPR, vs GpH7-A5/GpH7-B3/GpL16-k0 =100

Binder | He/Con 2aH
B1 | 57.8 % of control
B2 | 87.7 % of control
B3 | 80.4 % of control
B4 | 77.1 % of control
B5 | 100 % of control
B6 | 72.4 % of control
B7 | 99.4 % of control
B8 | 54.5 % of control
B9 | 85.4 % of control
B10 | 123 % of control
B11 | 94.1 % of control
B12 | 88.4 % of control
B13 | 100 % of control
B14 | 83.3 % of control

Molecular target: T3, FcγRIIb extracellular domain, His-tagged
Assay: SPR, vs GpH7-A5/GpH7-B3/GpL16-k0 =100

Binder | He/Con 2b
B1 | 221 % of control
B2 | 87 % of control
B3 | 135 % of control
B4 | 66.7 % of control
B5 | 101 % of control
B6 | 122 % of control
B7 | 115 % of control
B8 | 112 % of control
B9 | 83.8 % of control
B10 | 217 % of control
B11 | 86.1 % of control
B12 | 98.7 % of control
B13 | 96.9 % of control
B14 | 98.2 % of control

Molecular target: T5, FcγRIIIa extracellular domain, His-tagged (human, UniProt P08637 17-208)
T5 construct: extracellular domain; also called 3a
T5 sequence (P08637 other isoform, or with tags, fused parts or gaps): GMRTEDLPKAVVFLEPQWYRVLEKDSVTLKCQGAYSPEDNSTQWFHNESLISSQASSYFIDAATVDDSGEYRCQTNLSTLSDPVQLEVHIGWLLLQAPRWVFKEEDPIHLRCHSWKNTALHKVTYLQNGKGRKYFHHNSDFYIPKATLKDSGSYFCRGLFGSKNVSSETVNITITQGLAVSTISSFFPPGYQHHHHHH
Assay: SPR, vs GpH7-A5/GpH7-B3/GpL16-k0 =100

Binder | He/Con 3a
B1 | 61 % of control
B2 | 74 % of control
B3 | 97.7 % of control
B4 | 65.6 % of control
B5 | 92.5 % of control
B6 | 98.2 % of control
B7 | 74.5 % of control
B8 | 52.7 % of control
B9 | 73.5 % of control
B10 | 119 % of control
B11 | 80.2 % of control
B12 | 83.7 % of control
B13 | 87.6 % of control
B14 | 79.8 % of control
